Experimental data: publication PMC3936712
Where two headings read alike, the source gives them in different places.

Key:
Assay in all cases: fluorescence anisotropy
[1] = biological target: T1, jRdRp (NS5 RdRp module, wt) (Japanese encephalitis virus strain …, UniProt O90417 2799-3432)
[2] = biological target: T1, jRdRp (NS5 RdRp module, wt); remark: listed apart in the source
[3] = biological target: T1, jRdRp (NS5 RdRp module, wt); remark: listed apart in the source

B1: 10mer ssRNA (FR10) (ssRNA)
RNA: AUAAACUUCU
- Kd [1]: 39.3 ± 2.3 nM
- Kd [2]: 40.4 ± 2.1 nM
- Kd [3]: 33.9 ± 0.6 nM
